Laboratory results reported in article PMC4759655 (Immunity, 2016).

Target: the molecule itself
Experiment: cross-linking

B1: CD45 protein tyrosine phosphatase (receptor, UniProt P06800 26-1293, looked up)
chain: QTPTPSDELSTTENALLLPQSDPLPARTTESTPPSISERGNGSSETTYHPGVLSTLLPHLSPQPDSQTPSAGGADTQTFSSQADNPTLTPAPGGGTDPPGVPGERTVPGTIPADTAFPVDTPSLARNSSAASPTHTSNVSTTDISSGASLTTLTPSTLGLASTDPPSTTIATTTKQTCAAMFGNITVNYTYESSNQTFKADLKDVQNAKCGNEDCENVLNNLEECSQIKNISVSNDSCAPATTIDLYVPPGTDKFSLHDCTPKEKANTSICLEWKTKNLDFRKCNSDNISYVLHCEPENNTKCIRRNTFIPERCQLDNLRAQTNYTCVAEILYRGVKLVKNVINVQTDLGIPETPKPSCGDPAARKTLVSWPEPVSKPESASKPHGYVLCYKNNSEKCKSLPNNVTSFEVESLKPYKYYEVSLLAYVNGKIQRNGTAEKCNFHTKADRPDKVNGMKTSRPTDNSINVTCGPPYETNGPKTFYILVVRSGGSFVTKYNKTNCQFYVDNLYYSTDYEFLVSFHNGVYEGDSVIRNESTNFNAKALIIFLVFLIIVTSIALLVVLYKIYDLRKKRSSNLDEQQELVERDDEKQLMDVEPIHSDILLETYKRKIADEGRLFLAEFQSIPRVFSKFPIKDARKPHNQNKNRYVDILPYDYNRVELSEINGDAGSTYINASYIDGFKEPRKYIAAQGPRDETVDDFWRMIWEQKATVIVMVTRCEEGNRNKCAEYWPSMEEGTRAFKDIVVTINDHKRCPDYIIQKLNVAHKKEKATGREVTHIQFTSWPDHGVPEDPHLLLKLRRRVNAFSNFFSGPIVVHCSAGVGRTGTYIGIDAMLEGLEAEGKVDVYGYVVKLRRQRCLMVQVEAQYILIHQALVEYNQFGETEVNLSELHSCLHNMKKRDPPSDPSPLEAEYQRLPSYRSWRTQHIGNQEENKKKNRNSNVVPYDFNRVPLKHELEMSKESEPESDESSDDDSDSEETSKYINASFVMSYWKPEMMIAAQGPLKETIGDFWQMIFQRKVKVIVMLTELVNGDQEVCAQYWGEGKQTYGDMEVEMKDTNRASAYTLRTFELRHSKRKEPRTVYQYQCTTWKGEELPAEPKDLVSMIQDLKQKLPKASPEGMKYHKHASILVHCRDGSQQTGLFCALFNLLESAETEDVVDVFQVVKSLRKARPGVVCSYEQYQFLYDIIASIYPAQNGQVKKTNSQDKIEFHNEVDGGKQDANCVRPDGPLNKAQEDSRGVGTPEPTNSAEEPEHAANGSASPAPTQSS
In the case of B1, the “stoichiometry N” value is reported as 2.
